# What was measured:
# Test in all cases: purified protein
# Format in all cases: biochemical, Homo sapiens
# Settings in all cases: 1 mM NAD+, 150 mM sodium pyrophosphate pH 7.5, 30 °C
# purified protein [1] = substrate: C[N+](C)(C)CCCC=O
# purified protein [2] = substrate: N=C(N)NCCCC=O
# purified protein [3] = substrate: NCCC=O
# purified protein [4] = substrate: NCCCC=O
# purified protein [5] = substrate: O=CCc1ccc(O)c(O)c1
protein,measurement,setting,value
"human ALDH9A1 (HsALDH9A1) (Homo sapiens) (protein, full-length 494-residue protein, His-tag kept (pCDFDuet, BamHI/XhoI), recombinant from E. coli; silent polymorphism at Ile110 codon) MSTGTFVVSQPLNYRGGARVEPADASGTEKAFEPATGRVIATFTCSGEKEVNLAVQNAKAAFKIWSQKSGMERCRILLEAARIIREREDEIATMECINNGKSIFEARLDIDISWQCLEYYAGLAASMAGEHIQLPGGSFGYTRREPLGVCVGIGAWNYPFQIASWKSAPALACGNAMVFKPSPFTPVSALLLAEIYSEAGVPPGLFNVVQGGAATGQFLCQHPDVAKVSFTGSVPTGMKIMEMSAKGIKPVTLELGGKSPLIIFSDCDMNNAVKGALMANFLTQGQVCCNGTRVFVQKEILDKFTEEVVKQTQRIKIGDPLLEDTRMGPLINRPHLERVLGFVKVAKEQGAKVLCGGDIYVPEDPKLKDGYYMRPCVLTNCRDDMTCVKEEIFGPVMSILSFDTEAEVLERANDTTFGLAAGVFTRDIQRAHRVVAELQAGTCFINNYNVSPVELPFGGYKKSGFGRENGRVTIEYYSQLKTVCVEMGDVESAF",Km,purified protein [1],6 ± 1 µM
same,Vmax,purified protein [1],0.588 µmol/min/mg
same,Km,purified protein [2],21 ± 2 µM
same,Vmax,purified protein [2],0.114 µmol/min/mg
same,Km,purified protein [3],56 ± 7 µM
same,Vmax,purified protein [3],0.108 µmol/min/mg
same,Km,purified protein [4],67 ± 7 µM
same,Vmax,purified protein [4],0.108 µmol/min/mg
same,Km,purified protein [5],11 ± 1 µM
same,Vmax,purified protein [5],0.03 µmol/min/mg

# — PMC6487263, “Kinetic and structural analysis of human ALDH9A1” (Bioscience Reports, 2019)
